{"source": "paper PMC3507621", "about": "“Implication of the oligomeric state of the N-terminal PTX3 domain in cumulus matrix assembly” (Matrix Biology, 2011)", "binders": {"B1": {"name": "mouse TSG-6 (tumor necrosis factor-induced protein 6) (natural protein, UniProt O08859 18-275, looked up)", "chain": "WGFKNGIFHNSIWLEQAAGVYHREARAGRYKLTYAEAKAVCEFEGGRLATYKQLEAARKIGFHVCAAGWMAKGRVGYPIVKPGPNCGFGKTGIIDYGIRLNRSERWDAYCYNPHAKECGGVFTDPKRIFKSPGFPNEYDDNQVCYWHIRLKYGQRIHLSFLDFDLEHDPGCLADYVEIYDSYDDVHGFVGRYCGDELPEDIISTGNVMTLKFLSDASVTAGGFQIKYVTVDPASKSSQAKNTSTTGNKKFLPGRFSHL", "notes": "TSG-6 (tumor necrosis factor-induced protein 6), mouse; source: bought: R&D"}}, "key": {"[1]": {"target": "T1, biotinylated recombinant full length PTX3 (human, UniProt P26022 18-381, biotin)", "T1 construct": "Pentraxin 3 (PTX3), human recombinant wild type, full length; As a secreted protein it probably lacks the signal peptide (residues 1-17; surmise); also called bPTX3; biotinylated PTX3", "test": "ELISA; competition: wells coated with 500 ng of IαI or TSG-6; 50 ng/well biotinylated PTX3 with or without unlabeled N_PTX3 or triple mutant, 1 h at 37 °C; HRP-streptavidin", "conditions": "both partners purified"}, "[2]": {"target": "B1", "test": "ELISA; N_PTX3 proteins coated on wells (10 μg/ml); IαI or TSG-6 added in PBS with Ca2+ and Mg2+, 0.05% Tween-20, 1% BSA, pH 7.4, 2 h at 37 °C; detected with polyclonal anti-IαI or anti-TSG-6", "conditions": "both partners purified"}, "[3]": {"target": "the molecule itself", "test": "SEC + native gel or EMSA; Superose 6 in 20 mM sodium phosphate, 150 mM NaCl, pH 7.4; native 4-20% polyacrylamide gel without SDS; oligomeric state of purified N_PTX3 proteins"}}, "note": "Values joined by “and” are separate entries in the source; they are usually repeats but may differ in a detail not shown here. Equal values may be shown once."}
{"binder": "B1", "values": [{"measurement": "binding result", "setting": "[1]", "result": "binds"}]}
{"binder": "wild type recombinant N-terminal region of PTX3 (N_PTX3) (domain or fragment, human, Pentraxin 3 (PTX3), human, residues 18-170 of the PTX3 preprotein; two non-authentic amino acids (Thr-Gly) before the C-terminal His tag; Organised into tetramers by SEC and native gel; The 5' primer begins at the ATG of the preprotein, so the signal peptide was probably encoded and cut off on secretion (surmise); also called WT; source: HEK-293 F, stably transfected, purified from culture …) ENSDDYDLMYVNLDNEIDNGLHPTEDPTPCACGQEHSEWDKLFIMLENSQMRERMLLQATDDVLRGELQRLREELGRLAESLARPCAPGAPAEARLTSALDELLQATRDAGRRLARMEGAEAQRPEEAGRALAAVLEELRQTRADLHAVQGWATG", "values": [{"measurement": "binding result", "setting": "[2]", "result": "binds"}, {"measurement": "stoichiometry N", "setting": "[3]", "result": 4}]}
{"binder": "N_PTX3C103S (domain or fragment, human, Pentraxin 3 (PTX3), human, residues 18-170 of the PTX3 preprotein, with C103S; two non-authentic amino acids (Thr-Gly) before the C-terminal His tag; Mixture of tetramers and dimers, more tetramers than dimers; also called single mutant; source: HEK-293 F, stably transfected, purified from culture supernatant (HisTrap, desalting)) ENSDDYDLMYVNLDNEIDNGLHPTEDPTPCACGQEHSEWDKLFIMLENSQMRERMLLQATDDVLRGELQRLREELGRLAESLARPSAPGAPAEARLTSALDELLQATRDAGRRLARMEGAEAQRPEEAGRALAAVLEELRQTRADLHAVQGWATG", "values": [{"measurement": "binding result", "setting": "[2]", "result": "binds"}, {"measurement": "stoichiometry N", "setting": "[3]", "result": "4 and 2"}]}
{"binder": "N_PTX3C47S/C49S (domain or fragment, human, Pentraxin 3 (PTX3), human, residues 18-170 of the PTX3 preprotein, with C47S and C49S; two non-authentic amino acids (Thr-Gly) before the C-terminal His tag; Mixture of tetramers and dimers, more dimers than tetramers; also called double mutant; C47/C49; source: HEK-293 F, stably transfected, purified from culture supernatant (HisTrap, desalting)) ENSDDYDLMYVNLDNEIDNGLHPTEDPTPSASGQEHSEWDKLFIMLENSQMRERMLLQATDDVLRGELQRLREELGRLAESLARPCAPGAPAEARLTSALDELLQATRDAGRRLARMEGAEAQRPEEAGRALAAVLEELRQTRADLHAVQGWATG", "values": [{"measurement": "binding result", "setting": "[2]", "result": "binds"}, {"measurement": "stoichiometry N", "setting": "[3]", "result": "4 and 2"}]}
{"binder": "N_PTX3C47S/C49S/C103S (domain or fragment, human, Pentraxin 3 (PTX3), human, residues 18-170 of the PTX3 preprotein, with C47S, C49S and C103S; two non-authentic amino acids (Thr-Gly) before the C-terminal His tag; Composed entirely of non-covalent dimers; also called triple mutant; C47/C49/C103; source: HEK-293 F, stably transfected, purified from culture supernatant (HisTrap, desalting)) ENSDDYDLMYVNLDNEIDNGLHPTEDPTPSASGQEHSEWDKLFIMLENSQMRERMLLQATDDVLRGELQRLREELGRLAESLARPSAPGAPAEARLTSALDELLQATRDAGRRLARMEGAEAQRPEEAGRALAAVLEELRQTRADLHAVQGWATG", "values": [{"measurement": "binding result", "setting": "[2]", "result": "binds"}, {"measurement": "stoichiometry N", "setting": "[3]", "result": 2}]}
